{
  "source": "the supplement of paper PMC10724198",
  "note": "± gives the standard deviation of the averaged measurements.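 Further: PSI is a weighted mean of sequencing reads over stability bins, variants kept only with over 10 reads, mCherry proximal and sfGFP distal, peptide attached via GGGS linker.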",
  "data": [
    {"test_system": "Saccharomyces cerevisiae", "assay": "protein stability index of tFT-peptide fusion (C-terminal peptide) (PSI (0-1 scale)); higher = more stable (slower turnover)", "conditions": "genetic background: wild type; temperature: 30 C", "values": [
      {"sequence": "RLEAVLCRRFLR", "protein stability index": "0.6561 ± 0.0026"},
      {"sequence": "RLFFSRSVRSFF", "protein stability index": "0.529 ± 0.017"},
      {"sequence": "RLFTTVHSLQDV", "protein stability index": "0.674 ± 0.016"},
      {"sequence": "RLGNPPPFSTLG", "protein stability index": "0.691 ± 0.075"},
      {"sequence": "RLGWGGVGGAGV", "protein stability index": "0.711 ± 0.033"},
      {"sequence": "RLIPPQTAHEFP", "protein stability index": "0.685 ± 0.028"},
      {"sequence": "RLKFHRLVMTGY", "protein stability index": "0.612 ± 0.031"},
      {"sequence": "RLKTNKVIIKIK", "protein stability index": "0.6665 ± 0.0032"},
      {"sequence": "RLLAGLPLGGGN", "protein stability index": "0.656 ± 0.051"},
      {"sequence": "RLLCSETPPTLA", "protein stability index": "0.665 ± 0.014"},
      {"sequence": "RLLMIFTSKMFM", "protein stability index": "0.6623 ± 0.0019"},
      {"sequence": "RLLVSDSLLLGC", "protein stability index": "0.684 ± 0.014"},
      {"sequence": "RLNNRVMGHIEA", "protein stability index": "0.6673 ± 0.0062"},
      {"sequence": "RLNRSRAVTFRI", "protein stability index": "0.663 ± 0.019"},
      {"sequence": "RLPGLTHFLPKI", "protein stability index": "0.654 ± 0.038"},
      {"sequence": "RLPLSSPLRFSL", "protein stability index": "0.712 ± 0.06"},
      {"sequence": "RLPPLLVPFPSS", "protein stability index": "0.694 ± 0.015"},
      {"sequence": "RLPPPPPPPSTP", "protein stability index": "0.725 ± 0.053"},
      {"sequence": "RLPPPPPSPFPS", "protein stability index": "0.778 ± 0.056"},
      {"sequence": "RLPRHLPPAPAL", "protein stability index": "0.679 ± 0.025"},
      {"sequence": "RLPRRSVGRSTG", "protein stability index": "0.673 ± 0.078"},
      {"sequence": "RLRPVLSPHAPI", "protein stability index": "0.648 ± 0.033"},
      {"sequence": "RLTEVRVTLGSL", "protein stability index": "0.711 ± 0.082"},
      {"sequence": "RLTKTRNDLRSL", "protein stability index": "0.654 ± 0.016"},
      {"sequence": "RLTSPVLLFPLP", "protein stability index": "0.713 ± 0.013"},
      {"sequence": "RLVRVTSIKGKR", "protein stability index": "0.735 ± 0.054"},
      {"sequence": "RMINRLEKKHTK", "protein stability index": "0.771 ± 0.098"},
      {"sequence": "RMKKYKYELDLN", "protein stability index": "0.659 ± 0.019"},
      {"sequence": "RNKKKKNKNEKE", "protein stability index": "0.705 ± 0.0073"},
      {"sequence": "RNKNNKKNKKIR", "protein stability index": "0.702 ± 0.1"},
      {"sequence": "RNNKMYKYQGNL", "protein stability index": "0.662 ± 0.083"},
      {"sequence": "RNQQQENNKQSK", "protein stability index": "0.694 ± 0.016"},
      {"sequence": "RNSTDENDCGRK", "protein stability index": "0.7062 ± 0.00038"},
      {"sequence": "RNTKGRIKKKKE", "protein stability index": "0.728 ± 0.039"},
      {"sequence": "RNTRAVREHRNV", "protein stability index": "0.726 ± 0.0092"},
      {"sequence": "RNTSQNRIDEKL", "protein stability index": "0.657 ± 0.014"},
      {"sequence": "RNVALPSRKAQY", "protein stability index": "0.715 ± 0.016"},
      {"sequence": "RNYQKAKENMKL", "protein stability index": "0.585 ± 0.14"},
      {"sequence": "RPAPASAFPHSP", "protein stability index": "0.69 ± 0.045"},
      {"sequence": "RPASPRSPIVSR", "protein stability index": "0.726 ± 0.024"},
      {"sequence": "RPAVPSPRPPPP", "protein stability index": "0.674 ± 0.029"},
      {"sequence": "RPELGLCAGDTN", "protein stability index": "0.673 ± 0.061"},
      {"sequence": "RPFAPLPPPPSM", "protein stability index": "0.689 ± 0.025"},
      {"sequence": "RPFATVLRTRAV", "protein stability index": "0.71 ± 0.0077"},
      {"sequence": "RPGGVRVVSIQL", "protein stability index": "0.672 ± 0.06"},
      {"sequence": "RPGYDRNRTGMI", "protein stability index": "0.738 ± 0.073"},
      {"sequence": "RPHAFHCDPSSP", "protein stability index": "0.698 ± 0.11"},
      {"sequence": "RPKTLGNAREEG", "protein stability index": "0.708 ± 0.039"},
      {"sequence": "RPKWLCAIATAD", "protein stability index": "0.687 ± 0.023"},
      {"sequence": "RPLPGAFLLFRS", "protein stability index": "0.695 ± 0.021"},
      {"sequence": "RPLRRQREVCGA", "protein stability index": "0.597 ± 0.019"},
      {"sequence": "RPLRVLSYVPIH", "protein stability index": "0.644 ± 0.03"},
      {"sequence": "RPLWVDGPHPSR", "protein stability index": "0.666 ± 0.1"},
      {"sequence": "RPMKGLSMGSCA", "protein stability index": "0.66 ± 0.011"},
      {"sequence": "RPPFPLRTSPLV", "protein stability index": "0.694 ± 0.037"},
      {"sequence": "RPPLSPLLYPPP", "protein stability index": "0.7115 ± 0.0022"},
      {"sequence": "RPPPALWPPPSP", "protein stability index": "0.694 ± 0.027"},
      {"sequence": "RPPPSPPPIPSP", "protein stability index": "0.666 ± 0.033"},
      {"sequence": "RPPRPPTHSPPP", "protein stability index": "0.68 ± 0.01"},
      {"sequence": "RPRPKRCGPRSV", "protein stability index": "0.672 ± 0.052"},
      {"sequence": "RPRQAAAQGGAR", "protein stability index": "0.694 ± 0.036"},
      {"sequence": "RPRVCFPHIAGT", "protein stability index": "0.777 ± 0.11"},
      {"sequence": "RPSARSLVSPSP", "protein stability index": "0.716 ± 0.025"},
      {"sequence": "RPTGHAPSRALT", "protein stability index": "0.659 ± 0.062"},
      {"sequence": "RPVPVPTALIPS", "protein stability index": "0.61 ± 0.013"},
      {"sequence": "RPVSQRRRKHIG", "protein stability index": "0.645 ± 0.064"},
      {"sequence": "RPWAKGTGGRCY", "protein stability index": "0.723 ± 0.21"},
      {"sequence": "RPYGKQTERYVK", "protein stability index": "0.672 ± 0.029"},
      {"sequence": "RPYLSPPPPTSP", "protein stability index": "0.687 ± 0.093"},
      {"sequence": "RQFLSLLPCSLP", "protein stability index": "0.771 ± 0.094"},
      {"sequence": "RQGMGPKLVKHQ", "protein stability index": "0.633 ± 0.1"},
      {"sequence": "RQHPPLPSFPSP", "protein stability index": "0.759 ± 0.06"},
      {"sequence": "RQKAQESNTQPP", "protein stability index": "0.73 ± 0.044"},
      {"sequence": "RQLVNKKIKEKK", "protein stability index": "0.7258 ± 0.0051"},
      {"sequence": "RQPPPRSPPSYL", "protein stability index": "0.75 ± 0.063"},
      {"sequence": "RQQRKIYTDKQD", "protein stability index": "0.754 ± 0.0057"},
      {"sequence": "RQQSIIDNQIGQ", "protein stability index": "0.6802 ± 0.0061"},
      {"sequence": "RRAKMHSRRSLA", "protein stability index": "0.648 ± 0.053"},
      {"sequence": "RRAKMSWCCKKY", "protein stability index": "0.69 ± 0.0098"},
      {"sequence": "RRCRLNPPIDST", "protein stability index": "0.683 ± 0.088"},
      {"sequence": "RREVKKNGNKRN", "protein stability index": "0.713 ± 0.073"},
      {"sequence": "RRFKIDKNKIKL", "protein stability index": "0.683 ± 0.018"},
      {"sequence": "RRGKIETKESKK", "protein stability index": "0.712 ± 0.044"},
      {"sequence": "RRGTRGGGGRER", "protein stability index": "0.638 ± 0.019"},
      {"sequence": "RRGWVRWRVGAA", "protein stability index": "0.667 ± 0.074"},
      {"sequence": "RRLFGLGWDVKI", "protein stability index": "0.7177 ± 0.0034"},
      {"sequence": "RRMVRLDACASV", "protein stability index": "0.659 ± 0.041"},
      {"sequence": "RRNISRQNKKKR", "protein stability index": "0.76 ± 0.11"},
      {"sequence": "RRPPPPRGPSPP", "protein stability index": "0.713 ± 0.02"},
      {"sequence": "RRPPRVYLQLSI", "protein stability index": "0.67 ± 0.066"},
      {"sequence": "RRQPPRDQGTPC", "protein stability index": "0.795 ± 0.13"},
      {"sequence": "RRREGTVPWYIS", "protein stability index": "0.605 ± 0.057"},
      {"sequence": "RRRKPAEHTPPW", "protein stability index": "0.755 ± 0.1"},
      {"sequence": "RRRNSTFTNLDT", "protein stability index": "0.6783 ± 0.0045"},
      {"sequence": "RRRSLLLTYSYV", "protein stability index": "0.541 ± 0.055"},
      {"sequence": "RRSLDQSIQAKC", "protein stability index": "0.643 ± 0.055"},
      {"sequence": "RRTAVEEWGVGG", "protein stability index": "0.672 ± 0.12"},
      {"sequence": "RRTEGLATAGRV", "protein stability index": "0.666 ± 0.072"},
      {"sequence": "RRVGSGGLEGIG", "protein stability index": "0.528 ± 0.019"},
      {"sequence": "RRVPVVSRSGGG", "protein stability index": "0.697 ± 0.043"},
      {"sequence": "RRWGLIGVMSYL", "protein stability index": "0.732 ± 0.089"}
    ]}
  ]
}
